Assay results from patent publication US20250282870A1.
Where “and” joins values, the source holds several entries; their conditions need not be identical. Equal values may be shown once.

How the values were obtained:
[1] = target: FcγRII (CD32) expressed on Raji cells; assay: cell-based or functional assay
[2] = target: human CTLA4 expressed on Jurkat T cells (CTLA4 effector cells) (human) (UniProt P16410); assay: cell-based or functional assay
human CTLA4 expressed on Jurkat T cells (CTLA4 effector cells) (human), sequence (P16410 36-223): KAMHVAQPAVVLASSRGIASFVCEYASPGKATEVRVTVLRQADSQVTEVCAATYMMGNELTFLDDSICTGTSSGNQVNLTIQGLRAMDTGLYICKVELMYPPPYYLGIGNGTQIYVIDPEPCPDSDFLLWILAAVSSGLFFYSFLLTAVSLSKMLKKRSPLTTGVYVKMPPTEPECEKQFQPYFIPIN

L3D10 (BioLegend anti-CTLA4 antibody), sequence (heavy): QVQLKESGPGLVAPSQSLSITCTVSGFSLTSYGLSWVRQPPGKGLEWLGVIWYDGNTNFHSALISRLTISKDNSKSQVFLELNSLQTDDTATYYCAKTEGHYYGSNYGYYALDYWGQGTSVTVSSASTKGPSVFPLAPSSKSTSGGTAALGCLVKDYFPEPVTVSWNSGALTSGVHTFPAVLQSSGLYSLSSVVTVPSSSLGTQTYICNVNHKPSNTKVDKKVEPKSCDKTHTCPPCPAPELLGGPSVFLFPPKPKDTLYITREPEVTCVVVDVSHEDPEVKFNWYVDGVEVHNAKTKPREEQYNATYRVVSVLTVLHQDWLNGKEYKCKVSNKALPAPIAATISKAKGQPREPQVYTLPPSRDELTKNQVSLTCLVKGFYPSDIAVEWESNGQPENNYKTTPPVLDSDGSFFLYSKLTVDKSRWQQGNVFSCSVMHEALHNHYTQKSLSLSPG
L3D10 (BioLegend anti-CTLA4 antibody), sequence (light): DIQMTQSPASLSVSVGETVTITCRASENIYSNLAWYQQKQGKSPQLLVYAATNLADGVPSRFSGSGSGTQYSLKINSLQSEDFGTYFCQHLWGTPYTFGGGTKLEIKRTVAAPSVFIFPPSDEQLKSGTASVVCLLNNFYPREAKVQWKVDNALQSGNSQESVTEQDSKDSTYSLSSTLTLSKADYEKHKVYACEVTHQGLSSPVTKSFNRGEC

Substance	RLU ratio of the CTLA4 blockade assay with anti-CD32 antibody at 10 µg per ml [1] [%]	RLU ratio, Promega CTLA4 Blockade Bioassay (luciferase readout) [2]	half max activity concentration, CTLA4 Blockade Bioassay (luciferase or IL-2 readout) [2] [nM]	activity in the CTLA4 blockade assay with anti-CD32 antibody [1] [%]
L3D10 (BioLegend anti-CTLA4 antibody)	50	10 and 15	50	
ipilimumab (Selleckchem, Cat. No. A2001) (antibody)	50			50
